Reference: patent US6710030 (dated 2004)
“And” between values parts separate entries of the source, which are not always exact repeats. Equal values may be shown once.

Tests used:
[1] = molecular target: canine platelet (GP)IIb/IIIa on canine platelets (canine, UniProt Q9TUN8 32-1036; A0A8I3PMU9 158-919)
[2] = molecular target: T1, human platelet membrane glycoprotein (GP)IIb/IIIa (fibrinogen receptor, integrin αIIbβ3) on human platelets (human, UniProt P08514 32-1039; P05106 27-788)
[3] = molecular target: T1, human platelet membrane glycoprotein …; assay: Scatchard analysis of CN binding to unactivated human platelets

B1: contortrostatin (CN), homodimeric disintegrin purified from Agkistrodon contortrix contortrix (south (ligand)
chain: DAPANPCCDAATCKLTTGSQCADGLCCDQCKFMKEGTVCRRARGDDLDDYCNGISAGCPRNPFHA
notes: also called CTTX
- IC50 [1]: 0.24 µg/mL
- IC50 [2]: 25 nM and 0.4 µg/mL
- Kd [3]: 37 nM
